Experimental data published in US20210388087A1 (Chugai, published 2021).
Numbering of substitutions follows the chain as printed. Names may count otherwise.

B1: CE115HA000 H35Q one-arm antibody (antibody, human IgG1, kappa, L234A L235A, N297A, name in Kabat numbering)
heavy: QVQLVESGGGVVQPGRSLRLSCAASGFTFSNAWMQWVRQAPGKGLEWVAQIKAKSNNYATYYAESVKGRFTISRDDSKNSLYLQMNSLKTEDTAVYYCRYVHYGAYYGVDAWGQGTTVTVSSASTKGPSVFPLAPSSKSTSGGTAALGCLVKDYFPEPVTVSWNSGALTSGVHTFPAVLQSSGLYSLSSVVTVPSSSLGTQTYICNVNHKPSNTKVDKKVEPKSCDKTHTCPPCPAPEAAGGPSVFLFPPKPKDTLMISRTPEVTCVVVDVSHEDPEVKFNWYVDGVEVHNAKTKPREEQYASTYRVVSVLTVLHQDWLNGKEYKCKVSNKALPAPIEKTISKAKGQPREPQVYTLPPSRCELTKNQVSLSCAVKGFYPSDIAVEWESNGQPENNYKTTPPVLDSDGSFFLVSKLTVDKSRWQQGNVFSCSVMHEALHNHYTQKSLSLSPDYKDDDDK
chain: EPKSSDKTHTCPPCPAPELLGGPSVFLFPPKPKDTLMISRTPEVTCVVVDVSHEDPEVKFNWYVDGVEVHNAKTKPREEQYNSTYRVVSVLTVLHQDWLNGKEYKCKVSNKALPAPIEKTISKAKGQPREPQVCTLPPSRDELTKNQVSLWCLVKGFYPSDIAVEWESNGQPENNYKTTPPVLDSDGSFFLYSKLTVDKSRWQQGNVFSCSVMHEALHNRYTQKSLSLSP
light: DIVMTQSPLSLPVTPGEPASISCRSSQSLVHSNRNTYLHWYQQKPGQAPRLLIYKVSNRFSGVPDRFSGSGSGTDFTLKISRVEAEDVGVYYCGQGTQVPYTFGQGTKLEIKRTVAAPSVFIFPPSDEQLKSGTASVVCLLNNFYPREAKVQWKVDNALQSGNSQESVTEQDSKDSTYSLSSTLTLSKADYEKHKVYACEVTHQGLSSPVTKSFNRGEC
B2: CE115HA000 H35R one-arm antibody (antibody, human IgG1, kappa, L234A L235A, N297A, name in Kabat numbering)
heavy: B1 heavy with Q35R
chain: B1 chain
light: B1 light
B3: CE115HA000 H35S one-arm antibody (antibody, human IgG1, kappa, L234A L235A, N297A, name in Kabat numbering)
heavy: B1 heavy with Q35S
chain: B1 chain
light: B1 light
B4: CE115HA000 H35T one-arm antibody (antibody, human IgG1, kappa, L234A L235A, N297A, name in Kabat numbering)
heavy: B1 heavy with Q35T
chain: B1 chain
light: B1 light
B5: CE115HA000 H35V one-arm antibody (antibody, human IgG1, kappa, L234A L235A, N297A, name in Kabat numbering)
heavy: B1 heavy with Q35V
chain: B1 chain
light: B1 light
B6: CE115HA000 H35W one-arm antibody (antibody, human IgG1, kappa, L234A L235A, N297A, name in Kabat numbering)
heavy: B1 heavy with Q35W
chain: B1 chain
light: B1 light
B7: CE115HA000 H35Y one-arm antibody (antibody, human IgG1, kappa, L234A L235A, N297A, name in Kabat numbering)
heavy: B1 heavy with Q35Y
chain: B1 chain
light: B1 light
B8: CE115HA000 H96G one-arm antibody (antibody, human IgG1, kappa, L234A L235A, N297A, name in Kabat numbering)
heavy: B1 heavy with Q35H, H102G
chain: B1 chain
light: B1 light
B9: CE115HA000 H96K one-arm antibody (antibody, human IgG1, kappa, L234A L235A, N297A, name in Kabat numbering)
heavy: B1 heavy with Q35H, H102K
chain: B1 chain
light: B1 light
B10: CE115HA000 H96L one-arm antibody (antibody, human IgG1, kappa, L234A L235A, N297A, name in Kabat numbering)
heavy: B1 heavy with Q35H, H102L
chain: B1 chain
light: B1 light
B11: CE115HA000 H96P one-arm antibody (antibody, human IgG1, kappa, L234A L235A, N297A, name in Kabat numbering)
heavy: B1 heavy with Q35H, H102P
chain: B1 chain
light: B1 light
B12: CE115HA000 H96Q one-arm antibody (antibody, human IgG1, kappa, L234A L235A, N297A, name in Kabat numbering)
heavy: B1 heavy with Q35H, H102Q
chain: B1 chain
light: B1 light
B13: CE115HA000 H96R one-arm antibody (antibody, human IgG1, kappa, L234A L235A, N297A, name in Kabat numbering)
heavy: B1 heavy with Q35H, H102R
chain: B1 chain
light: B1 light
B14: CE115HA000 H96S one-arm antibody (antibody, human IgG1, kappa, L234A L235A, N297A, name in Kabat numbering)
heavy: B1 heavy with Q35H, H102S
chain: B1 chain
light: B1 light
B15: CE115HA000 H96Y one-arm antibody (antibody, human IgG1, kappa, L234A L235A, N297A, name in Kabat numbering)
heavy: B1 heavy with Q35H, H102Y
chain: B1 chain
light: B1 light
B16: CE115HA000 I51D one-arm antibody (antibody, human IgG1, kappa, L234A L235A, N297A, name in Kabat numbering)
heavy: B1 heavy with Q35H, I51D
chain: B1 chain
light: B1 light
B17: CE115HA000 I51E one-arm antibody (antibody, human IgG1, kappa, L234A L235A, N297A, name in Kabat numbering)
heavy: B1 heavy with Q35H, I51E
chain: B1 chain
light: B1 light
B18: CE115HA000 K43E one-arm antibody (antibody, human IgG1, kappa, L234A L235A, N297A, name in Kabat numbering)
heavy: B1 heavy with Q35H, K43E
chain: B1 chain
light: B1 light
B19: CE115HA000 K43Q one-arm antibody (antibody, human IgG1, kappa, L234A L235A, N297A, name in Kabat numbering)
heavy: B1 heavy with Q35H, K43Q
chain: B1 chain
light: B1 light
B20: CE115HA000 K52D one-arm antibody (antibody, human IgG1, kappa, L234A L235A, N297A, name in Kabat numbering)
heavy: B1 heavy with Q35H, K52D
chain: B1 chain
light: B1 light
B21: CE115HA000 K52E one-arm antibody (antibody, human IgG1, kappa, L234A L235A, N297A, name in Kabat numbering)
heavy: B1 heavy with Q35H, K52E
chain: B1 chain
light: B1 light
B22: CE115HA000 K52F one-arm antibody (antibody, human IgG1, kappa, L234A L235A, N297A, name in Kabat numbering)
heavy: B1 heavy with Q35H, K52F
chain: B1 chain
light: B1 light
B23: CE115HA000 K52H one-arm antibody (antibody, human IgG1, kappa, L234A L235A, N297A, name in Kabat numbering)
heavy: B1 heavy with Q35H, K52H
chain: B1 chain
light: B1 light
B24: CE115HA000 K52I one-arm antibody (antibody, human IgG1, kappa, L234A L235A, N297A, name in Kabat numbering)
heavy: B1 heavy with Q35H, K52I
chain: B1 chain
light: B1 light
B25: CE115HA000 K52N one-arm antibody (antibody, human IgG1, kappa, L234A L235A, N297A, name in Kabat numbering)
heavy: B1 heavy with Q35H, K52N
chain: B1 chain
light: B1 light
B26: CE115HA000 K52R one-arm antibody (antibody, human IgG1, kappa, L234A L235A, N297A, name in Kabat numbering)
heavy: B1 heavy with Q35H, K52R
chain: B1 chain
light: B1 light
B27: CE115HA000 K52S one-arm antibody (antibody, human IgG1, kappa, L234A L235A, N297A, name in Kabat numbering)
heavy: B1 heavy with Q35H, K52S
chain: B1 chain
light: B1 light
B28: CE115HA000 K52W one-arm antibody (antibody, human IgG1, kappa, L234A L235A, N297A, name in Kabat numbering)
heavy: B1 heavy with Q35H, K52W
chain: B1 chain
light: B1 light
B29: CE115HA000 K52Y one-arm antibody (antibody, human IgG1, kappa, L234A L235A, N297A, name in Kabat numbering)
heavy: B1 heavy with Q35H, K52Y
chain: B1 chain
light: B1 light
B30: CE115HA000 K52bA one-arm antibody (antibody, human IgG1, kappa, L234A L235A, N297A, name in Kabat numbering)
heavy: B1 heavy with Q35H, K54A
chain: B1 chain
light: B1 light
B31: CE115HA000 K52bD one-arm antibody (antibody, human IgG1, kappa, L234A L235A, N297A, name in Kabat numbering)
heavy: B1 heavy with Q35H, K54D
chain: B1 chain
light: B1 light
B32: CE115HA000 K52bL one-arm antibody (antibody, human IgG1, kappa, L234A L235A, N297A, name in Kabat numbering)
heavy: B1 heavy with Q35H, K54L
chain: B1 chain
light: B1 light
B33: CE115HA000 K52bN one-arm antibody (antibody, human IgG1, kappa, L234A L235A, N297A, name in Kabat numbering)
heavy: B1 heavy with Q35H, K54N
chain: B1 chain
light: B1 light

What follows are binders tested against T1, CD3 epsilon homodimer protein (UniProt P07766 23-126) (assay: SPR (Biacore T200), CD3 epsilon homodimer on CM4 chip, one-arm antibody as analyte, 25 C;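 further: homodimer attached to the sensor surface via amine coupling, HBS-EP+ used as running buffer during binding runs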).
T1 construct: immobilized on Sensor chip CM4 by amine coupling; also called CD3 (CD3 epsilon)
T1 sequence (P07766 23-126): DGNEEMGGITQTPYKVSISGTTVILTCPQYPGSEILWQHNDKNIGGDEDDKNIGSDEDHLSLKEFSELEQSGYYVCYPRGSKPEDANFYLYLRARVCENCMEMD
With B1 the “ratio of amounts bound (altered form / CE115HA000)” value was 0.13. For B2, the “ratio of amounts bound (altered form / CE115HA000)” value was 0.14. In the case of B3, the “ratio of amounts bound (altered form / CE115HA000)” value is reported as 0.23. In the case of B4, the “ratio of amounts bound (altered form / CE115HA000)” value is reported as 0.26. In the case of B5, the “ratio of amounts bound (altered form / CE115HA000)” value is reported as 0.22. In the case of B6, the “ratio of amounts bound (altered form / CE115HA000)” value is reported as 0.22. B7 was tested, and the “ratio of amounts bound (altered form / CE115HA000)” value was 0.16. In the case of B8, the “ratio of amounts bound (altered form / CE115HA000)” value is reported as 0.43. With B9 the “ratio of amounts bound (altered form / CE115HA000)” value was 0.38. B10 was tested, and the “ratio of amounts bound (altered form / CE115HA000)” value was 0.14. In the case of B11, the “ratio of amounts bound (altered form / CE115HA000)” value is reported as 0.12. For B12, the “ratio of amounts bound (altered form / CE115HA000)” value was 0.42. For B13, the “ratio of amounts bound (altered form / CE115HA000)” value was 0.46. For B14, the “ratio of amounts bound (altered form / CE115HA000)” value was 0.44. With B15 the “ratio of amounts bound (altered form / CE115HA000)” value was 0.17. In the case of B16, the “ratio of amounts bound (altered form / CE115HA000)” value is reported as 0.29. B17 was tested, and the “ratio of amounts bound (altered form / CE115HA000)” value was 0.55. For B18, the “ratio of amounts bound (altered form / CE115HA000)” value was 0.9. With B19 the “ratio of amounts bound (altered form / CE115HA000)” value was 0.99. With B20 the “ratio of amounts bound (altered form / CE115HA000)” value was 0.25. In the case of B21, the “ratio of amounts bound (altered form / CE115HA000)” value is reported as 0.26. With B22 the “ratio of amounts bound (altered form / CE115HA000)” value was 0.17. B23 was tested, and the “ratio of amounts bound (altered form / CE115HA000)” value was 0.22. For B24, the “ratio of amounts bound (altered form / CE115HA000)” value was 0.33. B25 was tested, and the “ratio of amounts bound (altered form / CE115HA000)” value was 0.34. For B26, the “ratio of amounts bound (altered form / CE115HA000)” value was 0.91. For B27, the “ratio of amounts bound (altered form / CE115HA000)” value was 0.28. With B28 the “ratio of amounts bound (altered form / CE115HA000)” value was 0.22. B29 was tested, and the “ratio of amounts bound (altered form / CE115HA000)” value was 0.18. For B30, the “ratio of amounts bound (altered form / CE115HA000)” value was 0.67. In the case of B31, the “ratio of amounts bound (altered form / CE115HA000)” value is reported as 0.27. For B32, the “ratio of amounts bound (altered form / CE115HA000)” value was 0.61. B33 was tested, and the “ratio of amounts bound (altered form / CE115HA000)” value was 0.27.
